# Source: PMC4385108, “Characterization of the Kluyveromyces marxianus strain DMB1 YGL157w gene product as a broad specificity NADPH-dependent aldehyde reductase” (AMB Express, 2015)
# B1: KmGRE2 (YGL157w gene product) (Kluyveromyces marxianus) (protein)
# chain: MTYVVVTGASGYLAQHVIKQLLERNYKVIGTVRNQQKAKDIAKLFQNDNLTLELVPDLLQADVFDDLFLKYTGQIKHVIHTASPCRFDTTEYENEMLLPAINGTKRVLESIKKYASETVETVVYTSSVSALANPAGILDSNLTLTEESWNPDSFEDGKKDVFSAYYVSKTFAERTAWDFWKENKDQVKFQLTTICPSYIFGPQAFEENAKGTLNFSTEIVNKILHSKPGDELDKNFAGAFVDVRDVARAHVLALEKPELKSKRLVLLNDVYALQDVADYINKHFPELRGKIATGVPGEGKEIVKYIAHYDNSKTKKLLGFEFISFGQAITDTVAQILKANN
# notes: monomer, about 36 kDa by gel filtration, 40 kDa by SDS-PAGE
# Key:
# purified protein [1] = substrate: CC(=O)C=O; test: purified protein; type: biochemical, Kluyveromyces marxianus; conditions: 100 mM acetate pH 5.5, 25°C, 0.2 mM NADPH
# purified protein [2] = substrate: NC(=O)C1=CN([C@@H]2O[C@H](COP(=O)(O)OP(=O)(O)OC[C@H]3O[C@@H](n4cnc5c(N)ncnc54)[C@H](OP(=O)(O)O)[C@@H]3O)[C@@H](O)[C@H]2O)C=CC1; test: purified protein; type: biochemical, Kluyveromyces marxianus; conditions: 100 mM acetate pH 5.5, 25°C, co-substrate methylglyoxal (5 mM in the standard assay), kcat unit as printed, presumably min^−1, varied: cofactor
protein,measurement,setting,value
B1,Km,purified protein [1],0.30 ± 0.018 mM
same,kcat,purified protein [1],1.3 × 10^3 ± 15 min^−1
same,Km,purified protein [2],0.028 ± 0.0012 mM
